Assays:
Format in all cases: cell-based, human
hNEPT [1] = assay: hNEPT culture exposed to BMP-7: cluster/colony formation and DNA content
Protocol: Fresh hNEPT preparations were allowed to attach to tissue culture-treated plates for 48 h and subsequently exposed to BMP-7. The rationale behind the use of BMP-7 was that it may help reduce the incidence of EMT in cultured pancreatic exocrine tissue, as EMT has proven an obstacle for the formation of endocrine cells from exocrine cells in a similar setting^7. Control aliquots were cultured in the same conditions but without BMP-7. […] The growth of the colonies in the BMP-7 group was followed by in situ live cell imaging (Incucyte Zoom) (FIG. 1b and FIG. 8). This increase in size was paralleled by an average increase of 4.8-fold in DNA content from the time of attachment to day 12 (n=2), which further evidenced active cell proliferation.
hNEPT culture: Human islets were isolated at the DRI's cGMP facility following methods already described54, and hNEPT samples (2-4 ml) were obtained as an isolation byproduct. […]
Real-time colony growth assessment: In order to observe the formation and growth of the colonies we used an IncuCyteZOOM EssenBiosciences instrument (Ann Arbor, Michigan) within a Symphony Incubator purchased from VWR (Atlanta Ga.). The cells remain in their own culturing flask or plate, where growth can be observed and quantified over time. […]

pure islet preparations = assay: Pure islet preparations treated with BMP-7 (colony formation); conditions: n=3
hNEPT [2] = assay: TLDA qRT-PCR gene expression in BMP-7-treated hNEPT; conditions: BMP-7-treated vs untreated control
Protocol: The expression of 43 genes (including epithelial, acinar, islet and mesenchymal cell markers) was studied in hNEPT preparations (n=8) treated with BMP-7 and untreated controls at the same time point. […] GCK, MAFA and NKX6.1, as well as islet development markers HNF1B and NEUROD1 were also elevated.
hNEPT culture: Human islets were isolated at the DRI's cGMP facility following methods already described54, and hNEPT samples (2-4 ml) were obtained as an isolation byproduct. The cells were washed and seeded on tissue culture-treated plates in FBS- and trypsin inhibitor-supplemented RPMI 1640 medium (Gibco-Life Technologies, Grand Island, N.Y.). After 48 h, floating cells were removed with fresh medium replacement. The following day, cultures were either treated with 100 ng/ml BMP-7 (ProSpec-Tany TechnoGene; Ness Ziona, Israel) or remained in the starting medium as controls. Cells were allowed to grow 4-5 days and then the serum-containing medium was replaced by serum-free Advanced RPMI 1640 (Gibco-Life Technologies, Grand Island, N.Y.). Four to five days later the cells were either subjected to static incubation to evaluate their ability to respond to changing glucose concentration or collected for further assessments (such as C-peptide content, immunohistochemistry or cellular composition) or transplantation.
Quantitative Real Time RT-PCR: Samples were washed in PBS and resuspended in RNA later (Life Technologies—Ambion, Grand Island, N.Y.). RNA was extracted with the mirVana kit (Life Technologies-Applied Biosystems, Grand Island, N.Y.). 2 ng/μl of RNA was used for cDNA synthesis using High-Capacity cDNA Kit (Life Technologies-Applied Biosystems, Grand Island, N.Y.). Quantitative RT-PCR was performed with TaqMan assays (Life technologies—Applied Biosystems, Grand Island, N.Y.) following manufacturer's instructions. RNA expression was calculated as Relative Quantification (RQ) by Applied Biosystems software using the formula RQ=2−ddCT (ddCT=dCT of the sample−dCT of the control). dCT is the number of cycles normalized by endogenous control. Individual reactions were performed with a 7500 Fast Real Time PCR system (Life Technologies). Some experiments were performed using custom-made Taqman® Low Density Microarray (TLDA) cards containing 43 target genes and 3 endogenous genes (ubiquitin C, 18S rRNA and beta actin) and ran in a 7900 Real time PCR cycler (Life Technologies). Cts >35 were considered undetermined.

[3] = system: P2RY1+/ALK3+ sorted cells; assay: Sorted P2RY1+/ALK3+ cells treated with BMP-7 with or without dorsomorphin; conditions: 100 ng/μl BMP-7, qRT-PCR and IF
Protocol: A 2-color FACS selection for dissociated hNEPT (as well as collagenase-digested MPDs) that are positive for the surface markers P2RY1 and ALK3 (Life Span Biosciences) is conducted. This approach has already been successfully tested, as is shown herein. Sorted cells are treated with 100 ng/μl of BMP-7 with or without dorsomorphin, which inhibits BMP signaling. Additional aliquots receive no treatment. […] This is determined by qRT-PCR and IF as above, as well as ultrastructural analyses by TEM.

B1: BMP-7: 35 kDa homodimeric protein of the TGF-β superfamily; FDA-approved agent; human mature chain SEQ ID NO:1/2 (protein, listed as Homo sapiens)
chain: IRSTGSKQRSQNRSKTPKNQEALRMANVAENSSSDQRQACKKHELYVSFRDLGWQDWIIAPEGYAAYYCEGECAFPLNSYMNATNHAIVQTLVHFINPETVPKPCCAPTQLNAISVLYFDDSSNVILKKYRNMVVRACGCH
modifications: homodimer; human mature chain of BMP-7 (NCBI Reference Sequence NM_001719.2) comprising peptide from 293-431
- formation of cellular clusters (hNEPT [1]; 100 ng/ml BMP-7, course of 12 days, controls became mesenchymal-like monolayers): induced the formation of abundant cellular clusters
- average increase in DNA content from the time of attachment to day 12 (hNEPT [1]; BMP-7 group, n=2): 4.8 fold
- colony formation (pure islet preparations): failed to give rise to colonies
- GCK, MAFA, NKX6.1, HNF1B and NEUROD1 expression (hNEPT [2]): elevated
- extra-insular genes KRT-19, CPA1 and PNLIP expression (hNEPT [2]): up-regulation
- ZEB2 expression (up-regulated) (hNEPT [2]; P<0.05): 1.6 fold
- E-cadherin (CDH1) expression (up-regulated) (hNEPT [2]; p<0.01): 6 fold
- EMT marker ZEB1 expression (down-regulated) (hNEPT [2]; p<0.01): 0.4 fold
- PDX1 gene expression, average increase (hNEPT [2]; same time point, n=8): 29 fold
- glucagon gene expression, average increase (hNEPT [2]; same time point, n=8): 92 fold
- insulin gene expression, average increase (hNEPT [2]; same time point, n=8): 40 fold
- pancreatic polypeptide (PPY) gene expression, average increase (hNEPT [2]; same time point, n=8): 14 fold
- somatostatin (SST) gene expression, average increase (hNEPT [2]; same time point, n=8): 28 fold
- expression of endocrine differentiation genes vs. control or BMP-7+dorsomorphin [3]: induces the expression of endocrine differentiation genes

Reference: US11466255B2, “Methods and compositions for converting non-endocrine pancreatic tissue into insulin-producing cells” (UNIVERSITY OF MIAMI, priority 2015, dated 2022)
